Experimental data published in publication PMC6825194.

Assays:
CCM1-K8 [1] = assay: BLI; GST-tagged fragments from PTB domains and HIS-tagged NPXY motifs, purified; Table 5 heads CCM1-K8 as 'Ligand'; who was immobilised and the conditions are not stated (as in ref. 20)
CCM1-K2 = assay: ITC; GST-tagged fragments from PTB domains and HIS-tagged NPXY motifs, purified; Table 5 heads CCM1-K8 and CCM1-K2 as 'Ligand'; conditions not stated (as in ref. 20)
CCM1-K8 [2] = assay: as above

## CCM2-EX6 (from UniProt Q9BSQ5 1-444) (domain or fragment)
CCM1-K8 [1]
  Kd: 4.06 µM
CCM1-K2
  Kd: 6.45 µM
CCM1-K8 [2]
  Kd: 1.99 µM
